Experimental data published in patent publication US6586222.

Columns and labels:
[1] = biological target: recombinant human proPR-3 secreted from Sf9 insect cells (human) (UniProt P24158); assay: cell-based or functional assay
[2] = system: recombinant human proPR-3 secreted from Sf9 insect cells
recombinant human proPR-3 secreted from Sf9 insect cells, sequence (chain, as listed by the source): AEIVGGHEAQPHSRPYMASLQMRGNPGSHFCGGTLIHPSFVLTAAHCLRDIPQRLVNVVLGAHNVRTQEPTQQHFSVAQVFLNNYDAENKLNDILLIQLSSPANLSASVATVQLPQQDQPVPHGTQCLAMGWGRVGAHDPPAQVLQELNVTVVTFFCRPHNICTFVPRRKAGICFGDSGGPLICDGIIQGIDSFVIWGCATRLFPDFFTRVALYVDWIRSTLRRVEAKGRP

recombinant human proPR-3 secreted from Sf9 insect cells (human), sequence (P24158 26-256 V119I): as the sequence (chain, as listed by the source) above

| Substance | N-terminal sequence of PR-3 after preparative DPPI activation [1] | activation of proPR-3 (PR-3 activity on Boc-Ala-ONp after DPPI treatment) [2] |
| --- | --- | --- |
| bovine dipeptidyl peptidase I (Boehringer Mannheim) (from UniProt Q3ZCJ8 25-463) (enzyme) | > 85% |  |
| bovine dipeptidyl peptidase I (Boehringer Mannheim) |  | 1.25% (wt/wt) was determined the minimum amount of DPPI required to obtain complete activation of PR-3 in 3 hr. at 37 °C |
